Test [1] deals with T1, HAUSP TRAF-like domain (residues 53–206) (Homo sapiens, UniProt Q93009).
T1 construct: GST (N); made in house; host or cells: Escherichia coli BL21(DE3), vector pGEX-2T
The test can be described thus: gel filtration binding assay of MDM2 fragments with HAUSP TRAF-like domain. Particulars: Superdex-200, HAUSP residues 53–206, 25 mM Tris pH 8.0, 100 mM NaCl, 2 mM DTT, 4 °C. As for the experimental part:
(§1) Size-exclusion chromatography (gel filtration), using a Superdex-200 column (10/30, Amersham Pharmacia Biotech, Piscataway, New Jersey, United States), was employed to carry out all the in vitro binding assays. Proteins subjected to binding tests were incubated at 4 °C for at least 45 min to allow equilibrium to be reached. The flow rate was 0.5 ml/min, and the buffer contained 25 mM Tris (pH 8.0), 100 mM NaCl, and 2 mM DTT. All fractions were collected at 0.5 ml each. Aliquots of relevant fractions were mixed with SDS sample buffer and subjected to SDS-polyacrylamide gel electrophoresis. The proteins were visualized by Coomassie Blue staining. The column was calibrated with molecular-mass standards.
In general terms: Size exclusion chromatography separates by hydrodynamic size, large species first.

Test [2] relates to HAUSP TRAF-like domain (residues 1–206). Nature of the test: in vitro competition assay using gel filtration chromatography, MDM2 versus p53. Format: binding. As to conditions: 10-fold molar equivalence of p53 (351–382) preincubated with HAUSP 5 min at 4 °C, then one molar equivalence of MDM2 (208–289) 45 min at 4 °C, SDS-PAGE/Coomassie.
Test [3] has the same test system. Nature of the test: gel filtration binding assay with HAUSP (residues 1–206). As to conditions: Superdex-200, 25 mM Tris pH 8.0, 100 mM NaCl, 2 mM DTT, 4 °C, SDS-PAGE/Coomassie, protein alone, no competitor. On the procedure: as §1

“Also recorded” adds a separate entry of the source.

T1 sequence (Q93009 53-206): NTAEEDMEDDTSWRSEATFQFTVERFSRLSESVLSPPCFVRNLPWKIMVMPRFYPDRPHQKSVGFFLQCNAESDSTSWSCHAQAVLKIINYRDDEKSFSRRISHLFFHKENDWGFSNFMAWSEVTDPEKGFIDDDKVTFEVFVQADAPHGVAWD

B1: MDM2 fragment residues 170–232: MDM2 fragment encompassing residues 170–232 (protein)
chain: ENSDELSGERQRKRHKSDSISLSFDESLALCVIREICCERSSSSESTGTPSNPDLDAGVSEHS
On to B1, for which, in test [1], the “complex formation with HAUSP TRAF-like domain” value is on record as “formed a stable complex”.

B2: MDM2 (residues 208–289): MDM2 fragment, residues 208–289 (protein)
chain: ERSSSSESTGTPSNPDLDAGVSEHSGDWLDQDSVSDQFSVEFEVESLDSEDYSLSEEGQELSDEDDEVYQVTVYQAGESDTD
In the case of B2, the “complex formation with HAUSP in competition” value in test [2] is recorded as “formed a stable complex only with MDM2; also recorded: formed a stable complex with HAUSP”. The “complex formation with HAUSP (residues 1–206)” value in test [3] is “interacts”.

B3: MDM2 fragment residues 223–289: MDM2 fragment encompassing residues 223–289 (protein)
chain: DLDAGVSEHSGDWLDQDSVSDQFSVEFEVESLDSEDYSLSEEGQELSDEDDEVYQVTVYQAGESDTD
Take B3: in test [1], the “complex formation with HAUSP TRAF-like domain” value is recorded as “formed a stable complex”.
